The source of these data is patent US20180045741.

This series has as its target unphosphorylated ubiquitin.

B1: PINK1-3x Flag isolated from CCCP-treated cells (protein)
chain: MAVRQALGRGLQLGRALLLRFTGKPGRAYGLGRPGPAAGCVRGERPGWAAGPGAEPRRVGLGLPNRLRFFRQSVAGLAARLQRQFVVRAWGCAGPCGRAVFLAFGLGLGLIEEKQAESRRAVSACQEIQAIFTQKSKPGPDPLDTRRLQGFRLEEYLIGQSIGKGCSAAVYEATMPTLPQNLEVTKSTGLLPGRGPGTSAPGEGQERAPGAPAFPLAIKMMWNISAGSSSEAILNTMSQELVPASRVALAGEYGAVTYRKSKRGPKQLAPHPNIIRVLRAFTSSVPLLPGALVDYPDVLPSRLHPEGLGHGRTLFLVMKNYPCTLRQYLCVNTPSPRLAAMMLLQLLEGVDHLVQQGIAHRDLKSDNILVELDPDGCPWLVIADFGCCLADESIGLQLPFSSWYVDRGGNGCLMAPEVSTARPGPRAVIDYSKADAWAVGAIAYEIFGLVNPFYGQGKAHLESRSYQEAQLPALPESVPPDVRQLVRALLQREASKRPSARVAANVLHLSLWGEHILALKNLKLDKMVGWLLQQSAATLLANRLTEKCCVETKMKMLFLANLECETLCQAALLLCSWRAAL
As for B1, the “phosphorylation of ubiquitin (Phos-tag assay)” value is “PINK1 isolated from CCCP-treated cells phosphorylates ubiquitin”.
